The text below walks through data of patent US20230071765A1, “COMPOSITIONS HAVING THIOREDOXIN ACTIVITY AND RELATED METHODS” (ORPRO THERAPEUTICS, INC., priority 2020, published 2023).

This experiment deals with human insulin (disulfide-bonded heterodimer) (human) (UniProt P01308). Put plainly: cell-based or functional assay.
Chain of human insulin (disulfide-bonded heterodimer) (human) (P01308 90-110 limits assumed, chain 1 of 2): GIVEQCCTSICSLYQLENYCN
Chain of human insulin (disulfide-bonded heterodimer) (human) (P01308 25-54 limits assumed, chain 2 of 2): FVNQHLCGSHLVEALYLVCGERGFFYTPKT

B1: ORP100S (fully monocysteinic human thioredoxin-1, reduced form) (enzyme)
chain: VKQIESKTAFQEALDAAGDKLVVVDFSATWCGPSKMIKPFFHSLSEKYSNVIFLEVDVDDSQDVASESEVKSMPTFQFFKKGQKVGEFSGANKEKLEATINELV
Regarding B1, the Relative % insulin reduction (ORP100S Ox 0 : Red 100) (% relative to maximum) stood at 100, the Relative % insulin reduction (ORP100S mixture Ox 25 : Red 75) (% relative to maximum) turned out to be 72, the Relative % insulin reduction (ORP100S mixture Ox 50 : Red 50) (% relative to maximum) amounted to 51 and the Relative % insulin reduction (ORP100S mixture Ox 75 : Red 25) (% relative to maximum) came to 36. For the same molecule, the maximum insulin heterodimer reaction with fully reduced material (RP-HPLC insulin reduction assay) came to 45%.

B2: oxidized ORP100S treated with iodacetamide (IA) (enzyme)
chain: B1 chain
modifications: Cys32 oxidized / treated with iodoacetamide, as printed: 'oxidized ORP100S treated with iodacetamide (IA)'
For the molecule B2, the Relative % insulin reduction (ORP100S Ox 100 : Red 0) (% relative to maximum) worked out at 8.
